Starred links: 1 amine or outer side, 2 acyl side, 3 side chain; linkers in the order of their positions; H or OH if unused. Positions of bridges follow the written chain, without caps; N, C: chain ends. Non-standard residues stand in square brackets, D forms with d. Chains are numbered I, II in the order given. No end group written: not given here. *: point of attachment. TATA = O=C(CC[*:1])N1CN(C(=O)CC[*:2])CN(C(=O)CC[*:3])C1; Dip = N[C@H](C(=O)O)C(c1ccccc1)c1ccccc1; 1Nal = N[C@@H](Cc1cccc2ccccc12)C(=O)O; Hyp = O=C(O)[C@@H]1C[C@@H](O)CN1; hArg = N=C(N)NCCCC[C@H](N)C(=O)O; tBuAla = CC(C)(C)C[C@H](N)C(=O)O; Cysteamide = C(CS[*:3])N[*:1]; Cba = N[C@@H](CC1CCC1)C(=O)O; dK(PYA) = not defined here; Nle = CCCC[C@H](N)C(=O)O; Pent4ynoyl = C#CCCC(=O)*; Mpa = O=C(O)CCS
B1: BCY10919 (peptide)
peptide 1: CPXDCMXDWSTPXWC
peptide 2: CXPEAPYCFADPYXCX
modifications: not fully specified; BCY11014: Ac-(SEQ ID NO: 6)-Dap(PYA); TATA; linker at C-term Dap(PYA); BCY11015: [PYA]-(SEQ ID NO: 1); TATA; linker at N-term PYA
B2: BCY12587 (peptide)
peptide 1: CP[1Nal]DCM[hArg]DWSTP[Hyp]WC
peptide 2: [Mpa][tBuAla]PE[dK](Pent4ynoyl)PYCFADPY[Nle]C
modifications: linker I:1-I:5-I:15, II:1-II:8-II:15 via TATA; not fully specified (some residues); also: chain 2 present twice on linker, Nectin-4:CD137 1:2, linker at chain B 5 to a chain's N-terminus via N-(acid-PEG3)-N-bis(PEG3-azide)
B3: BCY13341 (peptide)
peptide 1: C[Hyp][Cba]VNPLCL[Dip]P[dD]WTC[dA]
peptide 2: [Mpa][tBuAla]PE[dK(PYA)]PYCFADPY[Nle]C
modifications: linker I:1-I:8-I:15, II:1-II:8-II:15 via TATA; reading uncertain; also: linker at chain B 5 to a chain's N-terminus via N-(acid-PEG3)-N-bis(PEG3-azide)
B4: BCY13049 (peptide)
peptide 1: C[Hyp]LVNPLCLEP[dD]WTC[dA]
peptide 2: Ac-C[tBuAla]PE[dK](Pent4ynoyl)PYCFADPY[Nle]CA
modifications: linker I:1-I:8-I:15, II:1-II:8-II:15 via TATA (inferred); not fully specified (N-terminus); also: linker joins chain 1 to two chain 2 copies via PYA triazoles
B5: BCY13281 (peptide)
peptide 1: AADCXLVNPLCLEPDWTC
peptide 2: CXPEXPYCFADPYXCA
modifications: not fully specified; BCY8928: Ac-(SEQ ID NO: 11)-A; TATA; linker at dLys(PYA)4; BCY13127: [dA]-[dA]-D-(SEQ ID NO: 35); TATA; linker at N-terminus
B6: BCY12586 (peptide)
peptide 1: CPXDCMXDWSTPXWC
peptide 2: CXPEXPYCFADPYXX
modifications: not fully specified; BCY12352: Ac-(SEQ ID NO: 69), [Cysam] third reactive group; TATA; linker at dLys(PYA)4; BCY8116: SEQ ID NO: 1; TATA; linker at N-terminus
B7: BCY12484 (peptide)
peptide 1: CPXDCMXDWSTPXWC
peptide 2: CXEEXPYCFADPYXC
modifications: not fully specified; BCY12143: Ac-(SEQ ID NO: 64); TATA; linker at dLys(PYA)4; BCY8116: SEQ ID NO: 1; TATA; linker at N-terminus
B8: BCY12485 (peptide)
peptide 1: CPXDCMXDWSTPXWC
peptide 2: CXPEXPYCFADPYXC
modifications: not fully specified; BCY12149: Ac-(SEQ ID NO: 63); TATA; linker at dLys(PYA)4; BCY8116: SEQ ID NO: 1; TATA; linker at N-terminus
B9: BCY11021 (peptide)
peptide 1: CPXDCMXDWSTPXWC
peptide 2: ACIEEXQYCFADPYXCA
modifications: not fully specified; BCY7744: Ac-A-(SEQ ID NO: 12)-A; TATA; linker at dLys(PYA)4; BCY11016: [PYA]-[B-Ala]-(SEQ ID NO: 1); TATA; linker at N-term PYA
B10: BCY12978 (peptide)
peptide 1: A[hArg]EC[Hyp]LVNPLCLHP[dE]W[hArg]C
peptide 2: Ac-C[tBuAla]PE[dK](Pent4ynoyl)PYCFADPY[Nle]CA
modifications: linker I:4-I:11-I:18, II:1-II:8-II:15 via TATA (inferred); not fully specified (bridges); also: chain 1 N-terminus and chain 2 dLys(PYA) joined through N-(acid-PEG3)-N-bis(PEG3-azide) linker
B11: BCY13053 (peptide)
peptide 1: C[Hyp][Cba]VNPLCL[Dip]P[dD]WTC[dA]
peptide 2: Ac-C[tBuAla]PE[dK](Pent4ynoyl)PYCFADPY[Nle]CA
modifications: linker I:1-I:8-I:15 via TATA; linker II:1-II:8-II:15 via TATA (inferred); not fully specified (N-terminus, bridges); also: 1:2 complex: two copies of chain 2 (BCY8928) on the branched linker
B12: BCY10918 (peptide)
peptide 1: CPXDCMXDWSTPXWC
peptide 2: CXPEXPYCFADPYXCA
modifications: not fully specified; BCY8928: Ac-(SEQ ID NO: 11)-A; TATA; linker at dLys(PYA)4; BCY11015: [PYA]-(SEQ ID NO: 1); TATA; linker at N-term PYA
B13: BCY12486 (peptide)
peptide 1: CPXDCMXDWSTPXWC
peptide 2: CXPEXPYCFANPYXC
modifications: not fully specified; BCY12147: Ac-(SEQ ID NO: 65); TATA; linker at dLys(PYA)4; BCY8116: SEQ ID NO: 1; TATA; linker at N-terminus
B14: BCY13273 (peptide)
peptide 1: C[Hyp]LVNPLCL[1Nal]PDWTC
peptide 2: Ac-C[tBuAla]PE[dK](Pent4ynoyl)PYCFADPY[Nle]CA
modifications: linker I:1-I:8-I:15 via TATA; linker II:1-II:8-II:15 via TATA (inferred); not fully specified (some residues, N-terminus); also: linker joins chain 1 to two chain 2 copies via PYA triazoles
B15: BCY13274 (peptide)
peptide 1: Ac-C[Hyp]LVNPLCL[Dip]P[dD]WTC[dK]
peptide 2: Ac-C[tBuAla]PE[dK](Pent4ynoyl)PYCFADPY[Nle]CA
modifications: linker I:1-I:8-I:15 via TATA; linker II:1-II:8-II:15 via TATA (inferred); not fully specified (bridges); also: linker N-(acid-PEG3)-N-bis(PEG3-azide) on C-terminal dK of chain 1, joins two chain 2 copies via PYA triazoles
B16: BCY13343 (peptide)
peptide 1: C[Hyp]LVNPLCL[Dip]PDWTC
peptide 2: [Mpa][tBuAla]PE[dK(PYA)]PYCFADPY[Nle]C
modifications: linker I:1-I:8-I:15, II:1-II:8-II:15 via TATA; not fully specified (some residues); reading uncertain; also: 1:2 complex: two copies of chain 2 (BCY12353) on the branched linker, linker at chain B 5 to a chain's N-terminus via N-(acid-PEG3)-N-bis(PEG3-azide)
B17: BCY13280 (peptide)
peptide 1: [dA]EDC[Hyp]LVNPLCLEP[dD]WTC
peptide 2: Ac-C[tBuAla]PE[dK](Pent4ynoyl)PYCFADPY[Nle]CA
modifications: linker I:4-I:11-I:18, II:1-II:8-II:15 via TATA (inferred); not fully specified (N-terminus, bridges); also: 1:2 complex: two copies of chain 2 (BCY8928) on the branched linker
B18: BCY11385 (peptide)
peptide 1: CPXDCMXDWSTPXWC
peptide 2: CXPEAPYCFADPYXCX
modifications: not fully specified; BCY11014: Ac-(SEQ ID NO: 6)-Dap(PYA); TATA; linker at C-term Dap(PYA); BCY8116: SEQ ID NO: 1; TATA; linker at N-terminus
B19: BCY12590 (peptide)
peptide 1: CP[1Nal]ECM[hArg]EWSTP[Hyp]WC
peptide 2: Ac-C[tBuAla]PE[dK](Pent4ynoyl)PYCFADPY[Nle]CA
modifications: linker I:1-I:5-I:15, II:1-II:8-II:15 via TATA; not fully specified (some residues, bridges); also: chains joined via N-(acid-PEG3)-N-bis(PEG3-azide) linker, triazole at dLys(PYA)
B20: BCY13282 (peptide)
peptide 1: ADC[Hyp]LVNPLCLEP[dD]WTC
peptide 2: Ac-C[tBuAla]PE[dK](Pent4ynoyl)PYCFADPY[Nle]CA
modifications: linker I:3-I:10-I:17, II:1-II:8-II:15 via TATA (inferred); not fully specified (N-terminus, bridges); also: 1:2 complex: two BCY8928 chains on the linker
B21: BCY12588 (peptide)
peptide 1: CP[1Nal]DCM[hArg]DWSTP[Hyp]WC
peptide 2: [Mpa][tBuAla]PE[dK](Pent4ynoyl)PYCFADPY[Nle][Cysteamide]
modifications: linker I:1-I:5-I:15, II:1-II:8-II:15 via TATA; not fully specified (some residues); also: chain 2 present twice on linker, Nectin-4:CD137 1:2, linker at chain B 5 to a chain's N-terminus via N-(acid-PEG3)-N-bis(PEG3-azide)
B22: BCY13048 (peptide)
peptide 1: C[Hyp]LVNPLCL[Dip]P[dD]WTC
peptide 2: Ac-C[tBuAla]PE[dK](Pent4ynoyl)PYCFADPY[Nle]CA
modifications: linker I:1-I:8-I:15 via TATA; linker II:1-II:8-II:15 via TATA (inferred); not fully specified (N-terminus, bridges); also: 1:2 complex: two copies of chain 2 (BCY8928) on the branched linker

Columns and labels:
Assay in all cases: cell-based or functional assay
[1] = biological target: T1, CD137 on Jurkat reporter cells (Promega kit CS196005) (UniProt Q07011 24-255, limits assumed)
[2] = biological target: T1, CD137 on Jurkat reporter cells (Promega …); remark: listed apart in the source
[3] = biological target: T1, CD137 on Jurkat reporter cells (Promega …); remark: listed apart in the source

T1 sequence (Q07011 24-255 limits assumed): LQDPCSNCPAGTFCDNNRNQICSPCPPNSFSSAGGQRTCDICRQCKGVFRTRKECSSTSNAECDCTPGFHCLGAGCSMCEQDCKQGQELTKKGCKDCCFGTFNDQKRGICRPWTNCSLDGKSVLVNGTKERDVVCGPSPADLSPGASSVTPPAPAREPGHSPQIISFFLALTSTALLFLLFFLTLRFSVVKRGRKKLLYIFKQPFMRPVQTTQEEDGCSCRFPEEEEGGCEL

| Binder | Fold improvement in EC50 over BCY10000 on same plate, NCI-H292 [2] [fold] | Fold improvement in Emax over BCY10000 on same plate, NCI-H292 [2] [fold] | EC50 (nM), PC3 co-culture [3] [nM] | Emax (fold induction over background), PC3 [3] [fold over background] | further results |
| --- | --- | --- | --- | --- | --- |
| B1 |  |  |  |  | EC50 (nM), HT1376 co-culture [1]: 0.19 nM; Emax (fold induction over background), HT1376 [1]: 62 fold over background |
| B2 | 4.2 | 2.9 |  |  |  |
| B3 |  |  | 0.19 | 49.1 |  |
| B4 |  |  | 0.3 | 46 |  |
| B5 |  |  | 0.17 | 35.6 |  |
| B6 | 1.9 | 3.79 |  |  |  |
| B7 | 5.46 | 1.86 |  |  |  |
| B8 | 3.82 | 2.18 |  |  |  |
| B9 | 9.63 | 4.42 |  |  |  |
| B10 |  |  | 0.05 | 78.1 |  |
| B11 |  |  | 0.1 | 40.3 |  |
| B12 |  |  |  |  | EC50 (nM), HT1376 co-culture [1]: 0.16 nM |
| B13 | 0.25 | 1.73 |  |  |  |
| B14 |  |  | 0.13 | 51.3 |  |
| B15 |  |  | 0.19 | 47.4 |  |
| B16 |  |  | 0.11 | 44 |  |
| B17 |  |  | 0.19 | 38.1 |  |
| B18 | 9.35 | 1.28 |  |  |  |
| B19 | 5.5 | 2.73 |  |  |  |
| B20 |  |  | 0.22 | 40 |  |
| B21 | 0.72 | 3.2 |  |  |  |
| B22 |  |  | 0.09 | 48.4 |  |
